Laboratory results: paper PMC3684718, “Novel CAD-like enzymes from Escherichia coli K-12 as additional tools in chemical production” (Applied Microbiology and Biotechnology, 2012)

B1: YjgB (Escherichia coli K-12) (protein)
chain: MSMIKSYAAKEAGGELEVYEYDPGELRPQDVEVQVDYCGICHSDLSMIDNEWGFSQYPLVAGHEVIGRVVALGSAAQDKGLQVGQRVGIGWTARSCGHCDACISGNQINCEQGAVPTIMNRGGFAEKLRADWQWVIPLPENIDIESAGPLLCGGITVFKPLLMHHITATSRVGVIGIGGLGHIAIKLLHAMGCEVTAFSSNPAKEQEVLAMGADKVVNSRDPQALKALAGQFDLIINTVNVSLDWQPYFEALTYGGNFHTVGAVLTPLSVPAFTLIAGDRSVSGSATGTPYELRKLMRFAARSKVAPTTELFPMSKINDAIQHVRDGKARYRVVLKADF
notes: expressed in E. coli BL21(DE3) with ZnCl2
B2: YahK (Escherichia coli K-12) (protein)
chain: MKIKAVGAYSAKQPLEPMDITRREPGPNDVKIEIAYCGVCHSDLHQVRSEWAGTVYPCVPGHEIVGRVVAVGDQVEKYAPGDLVGVGCIVDSCKHCEECEDGLENYCDHMTGTYNSPTPDEPGHTLGGYSQQIVVHERYVLRIRHPQEQLAAVAPLLCAGITTYSPLRHWQAGPGKKVGVVGIGGLGHMGIKLAHAMGAHVVAFTTSEAKREAAKALGADEVVNSRNADEMAAHLKSFDFILNTVAAPHNLDDFTTLLKRDGTMTLVGAPATPHKSPEVFNLIMKRRAIAGSMIGGIPETQEMLDFCAEHGIVADIEMIRADQINEAYERMLRGDVKYRFVIDNRTLTD
notes: as for B1

Experiments:
purified protein [1] = substrate: CCCCO; test: purified protein; assay type: biochemical, Escherichia coli; details: NADP+, 50 mM Tris-HCl pH 8.5, 37 °C, pH 8.5
purified protein [2] = substrate: CCCC=O; test: purified protein; assay type: biochemical, Escherichia coli; details: NADPH 0.3 mM, 50 mM Tris-HCl pH 7.5, 37 °C, pH 7.5
purified protein [3] = substrate: O=Cc1ccccc1; test: purified protein; assay type: biochemical, Escherichia coli; details: NADPH 0.3 mM, 50 mM Tris-HCl pH 7.5, 37 °C, pH 7.5
purified protein [4] = substrate: NC(=O)C1=CN([C@@H]2O[C@H](COP(=O)(O)OP(=O)(O)OC[C@H]3O[C@@H](n4cnc5c(N)ncnc54)[C@H](OP(=O)(O)O)[C@@H]3O)[C@@H](O)[C@H]2O)C=CC1; test: purified protein; assay type: biochemical, Escherichia coli; details: butyraldehyde, 50 mM Tris-HCl pH 7.5, 37 °C, pH 7.5, varied: cofactor
purified protein [5] = substrate: O=CCCCC=O; test: purified protein; assay type: biochemical, Escherichia coli; details: NADPH 0.3 mM, 50 mM Tris-HCl pH 7.5, 37 °C, pH 7.5
purified protein [6] = substrate: O=Cc1ccco1; test: purified protein; assay type: biochemical, Escherichia coli; details: NADPH 0.3 mM, 50 mM Tris-HCl pH 7.5, 37 °C, pH 7.5
purified protein [7] = substrate: C/C=C/C=O; test: purified protein; assay type: biochemical, Escherichia coli; details: NADPH 0.3 mM, 50 mM Tris-HCl pH 7.5, 37 °C, pH 7.5
purified protein [8] = substrate: NC(=O)c1ccc[n+]([C@@H]2O[C@H](COP(=O)(O)OP(=O)(O)OC[C@H]3O[C@@H](n4cnc5c(N)ncnc54)[C@H](OP(=O)(O)O)[C@@H]3O)[C@@H](O)[C@H]2O)c1; test: purified protein; assay type: biochemical, Escherichia coli; details: butanol, 50 mM Tris-HCl pH 8.5, 37 °C, pH 8.5, varied: cofactor
purified protein [9] = substrate: CCC=O; test: purified protein; assay type: biochemical, Escherichia coli; details: NADPH 0.3 mM, 50 mM Tris-HCl pH 7.5, 37 °C, pH 7.5
purified protein [10] = substrate: CCCCCC=O; test: purified protein; details: NADPH 0.3 mM, 50 mM Tris-HCl pH 7.5, 37 °C
[11] = substrate: OCCCCO; test: purified protein, by the assay type; parameters: NADPH/NADP+ absorbance at 340 nm, purified His-tagged enzyme, Michaelis-Menten fit; pH 7.5 reduction, pH 8.5 oxidation, 37 °C
Description: (§1) The ADH activity was determined photometrically by monitoring the increase/decrease of NADP^+/NADPH at 340 nm in a Mulitskan® spectrum spectrophotometer (Thermo Fisher Scientific). The reaction mixture contained 50 mM Tris-HCl, pH 7.5, 0.3 mM NAD(P)H a defined aldehyde as substrate, and the purified enzyme at 37 °C. One unit of enzyme activity was defined as the amount of protein that oxidizes 1 μmol of NAD(P)H/min at 37 °C. Calculation of Michaelis–Menten kinetics for determination of K m and V max was done with SigmaPlot 11.0 (Systat Software). Alcohols with alkyl chains longer than C6 were not tested as substrates due to solubility problems. For the characterization of recombinant YahK and YjgB, enzyme activity was assayed for the reduction of carbonyl compounds and the oxidation of alcohols. For the reduction of carbonyl compounds, the assays were conducted at pH 7.5, 50 mM Tris-HCl, and 37 °C. The oxidation of alcohols was assayed with a slightly higher pH of 8.5, 50 mM Tris-HCl, and 37 °C. […] The decrease of NADPH at 340 nm was determined using a Shimadzu UV-1800 UV-spectrophotometer (Duisburg, Germany) Protein expression is exemplarily described for one enzyme and was performed for other proteins by the same procedure. E. coli BL21(DE3) containing the plasmid of interest was grown in 50 ml autoinduction media for efficient protein expression (Studier [2005]). In the case of YjgB, YahK, and YqhD, additional ZnCl2 was added to the media with a final concentration of 0.1 mM. The preculture was incubated in 4 ml of LB medium with 100 μg/ml kanamycin at 37 °C overnight on a rotary shaker (180 rpm). Expression culture was inoculated with a 1:100 dilution of overnight culture. Incubation was performed foremost 3 h at 37 °C followed by incubation for 21 h at 16 °C. Cells were harvested by centrifugation and resuspended in 50 mM sodium phosphate buffer (pH 8.0, 20 mM imidazol, 500 mM NaCl, and 10 % glycerol). Crude extracts were prepared by use of a cell disrupter (IUL Instruments) and subsequent addition of MgCl2 to a final concentration of 2.5 mM in combination with DNase (1 μg/ml) and a following incubation for 20 min at room temperature for DNA degradation. The insoluble fraction of the lysate was removed by centrifugation at 20,000 rpm for 40 min at 4 °C. The supernatant was filtered through a 0.45-μm syringe filter and applied to an affinity resin column, 5 ml HisTrap^TM FF, equilibrated with the resuspension buffer using the ÄKTA UPC-900 FPLC-system. The enzyme was washed with 20 ml of resuspension buffer and eluted with 50 mM sodium phosphate buffer (pH 8.0, 500 mM imidazol, 500 mM NaCl, and 10 % glycerol). Aliquots of each eluted fraction were subjected to 12 % SDS-PAGE. The fractions containing the eluted protein were pooled and the protein was desalted using a HiPrep^TM 26/10 Desalting column which preliminary equilibrated with 50 mM Tris-HCl, pH 8.0. Protein concentrations were determined using a Bradford assay Roti®-nanoquant (Carl Roth).

[12] = substrate: CC=O; test: purified protein, by the assay type; parameters: NADPH/NADP+ absorbance at 340 nm, purified His-tagged enzyme, Michaelis-Menten fit; pH 7.5 reduction, pH 8.5 oxidation, 37 °C
Description: as §1

[13] = substrate: CC(C)C=O; test: purified protein, by the assay type; parameters: NADPH/NADP+ absorbance at 340 nm, purified His-tagged enzyme, Michaelis-Menten fit; pH 7.5 reduction, pH 8.5 oxidation, 37 °C
Description: as §1

purified protein [14] = substrate: O=C[C@H](O)CO; test: purified protein; details: NADPH 0.3 mM, 50 mM Tris-HCl pH 7.5, 37 °C
purified protein [15] = substrate: CC(C)C=O; test: purified protein; details: NADPH 0.3 mM, 50 mM Tris-HCl pH 7.5, 37 °C
[16] = substrate: CCC=O; test: purified protein, by the assay type; parameters: NADPH/NADP+ absorbance at 340 nm, purified His-tagged enzyme, Michaelis-Menten fit; pH 7.5 reduction, pH 8.5 oxidation, 37 °C
Description: as §1

Row | Protein | Km (purified protein [2]) | kcat (purified protein [2]) | kcat/Km (purified protein [2]) | Km (purified protein [3]) | kcat (purified protein [3]) | kcat/Km (purified protein [3]) | Km (purified protein [4]) | kcat (purified protein [4]) | kcat/Km (purified protein [4]) | Km (purified protein [5]) | kcat (purified protein [5]) | kcat/Km (purified protein [5]) | Km (purified protein [6]) | kcat (purified protein [6]) | kcat/Km (purified protein [6]) | Km (purified protein [7]) | kcat (purified protein [7]) | kcat/Km (purified protein [7]) | Km (purified protein [8]) | kcat (purified protein [8]) | further results
1 | B1 | 2100 ± 90 µM | 464 ± 24.2 s⁻¹ | 221000 M⁻¹ s⁻¹ | 240 ± 20 µM | 313 ± 7.4 s⁻¹ | 1.3e+06 M⁻¹ s⁻¹ | 60 ± 3 µM | 224 ± 36.5 s⁻¹ | 3.73e+06 M⁻¹ s⁻¹ | 5800 ± 500 µM | 312 ± 14.8 s⁻¹ | 53800 M⁻¹ s⁻¹ | 220 ± 20 µM | 224 ± 26.9 s⁻¹ | 1.02e+06 M⁻¹ s⁻¹ | 2400 ± 200 µM | 77.6 ± 3.3 s⁻¹ | 32300 M⁻¹ s⁻¹ | 76 ± 10 µM | 14.4 ± 0.2 s⁻¹ | Km (purified protein [1]): 3500 ± 280 µM; kcat (purified protein [1]): 13.8 ± 0.6 s⁻¹; kcat/Km (purified protein [1]): 3940 M⁻¹ s⁻¹; kcat/Km (purified protein [8]): 189000 M⁻¹ s⁻¹; Km (purified protein [9]): 19600 ± 800 µM; kcat (purified protein [9]): 207 ± 2.9 s⁻¹; kcat/Km (purified protein [9]): 10600 M⁻¹ s⁻¹; Km (purified protein [10]): 340 ± 30 µM; kcat (purified protein [10]): 419 s⁻¹; kcat/Km (purified protein [10]): 1.23e+06 M⁻¹ s⁻¹; Km [11]: 24100 ± 1500 µM; kcat [11]: 12.9 ± 0.4 s⁻¹; kcat/Km [11]: 530 M⁻¹ s⁻¹; Km [12]: 73400 ± 5400 µM; kcat [12]: 333 ± 26.1 s⁻¹; kcat/Km [12]: 4500 M⁻¹ s⁻¹; Km [13]: 193700 ± 27500 µM; kcat [13]: 50.8 ± 9.4 s⁻¹; kcat/Km [13]: 260 M⁻¹ s⁻¹
2 | B2 | 2100 ± 100 µM | 41.6 ± 0.6 s⁻¹ | 19800 M⁻¹ s⁻¹ | 290 ± 20 µM | 7.75 ± 0.5 s⁻¹ | 26700 M⁻¹ s⁻¹ | 11 ± 1 µM | 9.8 ± 0.4 s⁻¹ | 894000 M⁻¹ s⁻¹ | 4100 ± 400 µM | 13.4 ± 1.5 s⁻¹ | 3300 M⁻¹ s⁻¹ | 135 ± 30 µM | 12.5 ± 1.9 s⁻¹ | 92300 M⁻¹ s⁻¹ | 3600 ± 400 µM | 32.6 ± 2.1 s⁻¹ | 9100 M⁻¹ s⁻¹ | 12 ± 1 µM | 7.47 ± 0.07 s⁻¹ | kcat/Km (purified protein [8]): 622000 M⁻¹ s⁻¹; Km (purified protein [10]): 370 ± 20 µM; kcat (purified protein [10]): 18.3 s⁻¹; kcat/Km (purified protein [10]): 49500 M⁻¹ s⁻¹; Km (purified protein [14]): 4400 ± 400 µM; kcat (purified protein [14]): 12.3 s⁻¹; kcat/Km (purified protein [14]): 2800 M⁻¹ s⁻¹; Km (purified protein [15]): 2200 ± 200 µM; kcat (purified protein [15]): 32.1 s⁻¹; kcat/Km (purified protein [15]): 14600 M⁻¹ s⁻¹; Km [11]: 38500 ± 2900 µM; kcat [11]: 6.7 ± 0.3 s⁻¹; kcat/Km [11]: 180 M⁻¹ s⁻¹; Km [12]: 13300 ± 1000 µM; kcat [12]: 11.2 ± 0.7 s⁻¹; kcat/Km [12]: 840 M⁻¹ s⁻¹; Km [16]: 10900 ± 1000 µM; kcat [16]: 11.6 ± 0.6 s⁻¹; kcat/Km [16]: 1100 M⁻¹ s⁻¹
